Test results taken from paper PMC5175334.

B1: full-length wild-type TRBP (TRBP-WT), lentivirally expressed in HDLECs [human] / S6K2 (S6 kinase 2), endogenous [human (endogenous in HDLEC)] (parent)
chain 1: MSEEEQGSGTTTGCGLPSIEQMLAANPGKTPISLLQEYGTRIGKTPVYDLLKAEGQAHQPNFTFRVTVGDTSCTGQGPSKKAAKHKAAEVALKHLKGGSMLEPALEDSSSFSPLDSSLPEDIPVFTAAAAATPVPSVVLTRSPPMELQPPVSPQQSECNPVGALQELVVQKGWRLPEYTVTQESGPAHRKEFTMTCRVERFIEIGSGTSKKLAKRNAAAKMLLRVHTVPLDARDGNEVEPDDDHFSIGVGSRLDGLRNRGPGCTWDSLRNSVGEKILSLRSCSLGSLGALGPACCRVLSELSEEQAFHVSYLDIEELSLSGLCQCLVELSTQPATVCHGSATTREAARGEAARRALQYLKIMAGSK
chain 2: MAAVFDLDLETEEGSEGEGEPELSPADACPLAELRAAGLEPVGHYEEVELTETSVNVGPERIGPHCFELLRVLGKGGYGKVFQVRKVQGTNLGKIYAMKVLRKAKIVRNAKDTAHTRAERNILESVKHPFIVELAYAFQTGGKLYLILECLSGGELFTHLEREGIFLEDTACFYLAEITLALGHLHSQGIIYRDLKPENIMLSSQGHIKLTDFGLCKESIHEGAVTHTFCGTIEYMAPEILVRSGHNRAVDWWSLGALMYDMLTGSPPFTAENRKKTMDKIIRGKLALPPYLTPDARDLVKKFLKRNPSQRIGGGPGDAADVQRHPFFRHMNWDDLLAWRVDPPFRPCLQSEEDVSQFDTRFTRQTPVDSPDDTALSESANQAFLGFTYVAPSVLDSIKEGFSFQPKLRSPRRLNSSPRAPVSPLKFSPFEGFRPSPSLPEPTELPLPPLLPPPPPSTTAPLPIRPPSGTKKSKRGRGRPGR

Variants of: B1
Test: proximity ligation assay (PLA) in cells
Conditions: with S6K2 (S6 kinase 2), HDLECs transduced with TRBP-DD lentivirus (200 ml/80 000 cells), endogenous TRBP also present, parent: 31, read off a plot

| Variant | response (PLA events per HDLEC) |
| --- | --- |
| chain 1 S283D S286D | 7 |

Variants of: B1
Test: co-immunoprecipitation, band quantification
Conditions: with S6K2, lentivirally over-expressed in HEK293 cells; HEK293 cells over-expressing S6K2 and TRBP-WT or TRBP-DD; parent: 1; read off a plot

| Variant | ratio to parent |
| --- | --- |
| chain 1 S283D S286D | 0.16 |

Variants of: B1
Test: proximity ligation assay (PLA) in cells
Conditions: with S6K2 (S6 kinase 2), HDLECs transduced with TRBP-AA lentivirus (600 ml/80 000 cells), endogenous TRBP also present, parent: 31, read off a plot

| Variant | response (PLA events per HDLEC) |
| --- | --- |
| chain 1 S283A S286A | 20 |
